Measurements published in patent US6416738B1, “Pretargeting methods and compounds” (NeoRx Corporation, priority 1973, dated 2002).

Target: T1, NR-LU-10 antigen (Homo sapiens, UniProt P16422)
T1 construct: Positive NR-LU-10 tissue reactivity indicates NR-LU-10 antigen expression by such tissues; from tissue; host or cells: carcinoma and normal tissue specimens
T1 sequence (P16422 24-314): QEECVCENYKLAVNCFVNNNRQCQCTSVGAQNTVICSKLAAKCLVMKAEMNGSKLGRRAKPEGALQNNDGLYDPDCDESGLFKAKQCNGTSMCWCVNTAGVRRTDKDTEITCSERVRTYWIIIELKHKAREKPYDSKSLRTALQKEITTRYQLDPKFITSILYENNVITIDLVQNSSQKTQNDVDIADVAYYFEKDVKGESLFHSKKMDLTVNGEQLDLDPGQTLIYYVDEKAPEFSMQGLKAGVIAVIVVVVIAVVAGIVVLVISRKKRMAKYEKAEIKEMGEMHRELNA
Experiment: NR-LU-10 reactivity with normal tissues (Table B)
Format: binding
Excerpt: Radioimmunoassays, immunoprecipitation and Fluorescence-Activated Cell Sorter (FACS) analysis were used to obtain reactivity profiles of NR-LU-10. The NR-LU-10 target antigen was present on either fixed cultured cells or in detergent extracts of various types of cancer cells. For example, the NR-LU-10 antigen is found in small cell lung, non-small cell lung, colon, breast, renal, ovarian, pancreatic, and other carcinoma tissues. Tumor reactivity of the NR-LU-10 antibody is set forth in Table A, while NR-LU-10 reactivity with normal tissues is set forth in Table B. The values in Table B are obtained as described below. Positive NR-LU-10 tissue reactivity indicates NR-LU-10 antigen expression by such tissues.
The tissue specimens were scored in accordance with three reactivity parameters: (1) the intensity of the reaction; (2) the uniformity of the reaction within the cell type; and (3) the percentage of cells reactive with the antibody. These three values are combined into a single weighted comparative value between 0 and 500, with 500 being the most intense reactivity. This comparative value facilitates comparison of different tissues. Table B includes a summary reactivity value, the number of tissue samples examined and the number of samples that reacted positively with NR-LU-10.

[1] = Salivary Gland: Acinar Epithelium
[2] = Salivary Gland: Duct Epithelium
[3] = Spleen: Lymphoid Follicle-Central
[4] = Spleen: Lymphoid Follicle-Peripheral
[5] = Spleen: Trabecular Smooth Muscle
[6] = Stomach: Muscularis Mucosa/Externa
[7] = Stromal Tissue: Arteriolar Smooth Muscle
[8] = Stromal Tissue: Fibrous Connective Tissue
[9] = Stromal Tissue: Mast Cells/Eosinophils
[10] = Tonsil: Lymphoid Follicle-Central
[11] = Tonsil: Lymphoid Follicle-Peripheral
[12] = Urinary Bladder: Mucosal Epithelium
[13] = Vagina/Cervix: Epithelial Glands
[14] = Vagina/Cervix: Squamous Epithelium

B1: NR-LU-10: 150 kilodalton IgG2b monoclonal antibody recognizing an approximately 40 kilodalton glycoprotein antigen expressed on most carcinomas (antibody, V domains shown)
VH: EVQLQQSGAELVKPGASVRLSCTASGFNIKDTYMHWVIERPEQGLEWIGRIDPANGNTKCDPKFQGKATITADTSSNTAYLQLSSLTSEDTAVYYCSREVLTGTWSLDYWGQGTSVTVSS
VL: DIQMIQSPSSMFASLGDRVSLSCRASQGIRGNLDWYQQKPGGTIKLLIYSTSNLNSGVPSRFSGSGSGSDYSLTISSLDSEDFADYYCLQRNAYPYTFGGGTKLEIK
Summary Reactivity (Nerve: Endoneurium): 0 | # Pos/Exam (Nerve: Neurolemma): 0/2 | Summary Reactivity (Nerve: Neurolemma): 0 | # Pos/Exam (Nerve: Neuron): 0/2 | Summary Reactivity (Nerve: Neuron): 0 | # Pos/Exam (Nerve: Perineurium): 0/2 | Summary Reactivity (Nerve: Perineurium): 0 | # Pos/Exam (Ovary: Corpus Luteum): 0/3 | Summary Reactivity (Ovary: Corpus Luteum): 0 | # Pos/Exam (Ovary: Eipthelium): 1/1 | Summary Reactivity (Ovary: Eipthelium): 270 | # Pos/Exam (Ovary: Granulosa): 1/3 | Summary Reactivity (Ovary: Granulosa): 400 | # Pos/Exam (Ovary: Serosa): 0/3 | Summary Reactivity (Ovary: Serosa): 0 | # Pos/Exam (Ovary: Theca): 0/3 | Summary Reactivity (Ovary: Theca): 0 | # Pos/Exam (Oviduct: Epithelium): 1/1 | Summary Reactivity (Oviduct: Epithelium): 500 | # Pos/Exam (Oviduct: Smooth Muscle): 0/3 | Summary Reactivity (Oviduct: Smooth Muscle): 0 | # Pos/Exam (Pancreas: Acinar Cell): 3/3 | Summary Reactivity (Pancreas: Acinar Cell): 500 | # Pos/Exam (Pancreas: Duct Epthelium): 3/3 | Summary Reactivity (Pancreas: Duct Epthelium): 500 | # Pos/Exam (Pancreas: Islet Cell): 3/3 | Summary Reactivity (Pancreas: Islet Cell): 500 | # Pos/Exam (Peritoneum: Mesothelium): 0/1 | Summary Reactivity (Peritoneum: Mesothelium): 0 | # Pos/Exam (Pituitary: Adenohypophysis): 2/2 | Summary Reactivity (Pituitary: Adenohypophysis): 500 | # Pos/Exam (Pituitary: Neurohypophysis): 0/2 | Summary Reactivity (Pituitary: Neurohypophysis): 0 | # Pos/Exam (Placenta: Trophoblasts): 0/3 | Summary Reactivity (Placenta: Trophoblasts): 0 | # Pos/Exam (Prostate: Concretions): 0/3 | Summary Reactivity (Prostate: Concretions): 0 | # Pos/Exam (Prostate: Glandular Epithelium): 3/3 | Summary Reactivity (Prostate: Glandular Epithelium): 400 | # Pos/Exam (Prostate: Smooth Muscle): 0/3 | Summary Reactivity (Prostate: Smooth Muscle): 0 | # Pos/Exam (Rectum: Lymph Node): 0/2 | Summary Reactivity (Rectum: Lymph Node): 0 | # Pos/Exam (Rectum: Mucosal Epithelium): 0/2 | Summary Reactivity (Rectum: Mucosal Epithelium): 0 | # Pos/Exam (Rectum: Muscularis Externa): 0/1 | Summary Reactivity (Rectum: Muscularis Externa): 0 | # Pos/Exam (Rectum: Muscularis Mucosa): 0/3 | Summary Reactivity (Rectum: Muscularis Mucosa): 0 | # Pos/Exam (Rectum: Nerve Ganglia): 0/3 | Summary Reactivity (Rectum: Nerve Ganglia): 0 | # Pos/Exam [1]: 3/3 | Summary Reactivity [1]: 500 | # Pos/Exam [2]: 3/3 | Summary Reactivity [2]: 500 | # Pos/Exam (Skin: Apocrine Glands): 3/3 | Summary Reactivity (Skin: Apocrine Glands): 280 | # Pos/Exam (Skin: Basal Layer): 3/3 | Summary Reactivity (Skin: Basal Layer): 33 | # Pos/Exam (Skin: Epithelium): 1/3 | Summary Reactivity (Skin: Epithelium): 10 | # Pos/Exam (Skin: Follicle): 1/1 | Summary Reactivity (Skin: Follicle): 190 | # Pos/Exam (Skin: Stratum Corneum): 0/3 | Summary Reactivity (Skin: Stratum Corneum): 0 | # Pos/Exam (Spinal Cord: Axons, Myelinated): 0/2 | Summary Reactivity (Spinal Cord: Axons, Myelinated): 0 | # Pos/Exam (Spinal Cord: Microglial): 0/2 | Summary Reactivity (Spinal Cord: Microglial): 0 | # Pos/Exam (Spinal Cord: Neurons): 0/2 | Summary Reactivity (Spinal Cord: Neurons): 0 | # Pos/Exam [3]: 0/3 | Summary Reactivity [3]: 0 | # Pos/Exam [4]: 0/3 | Summary Reactivity [4]: 0 | # Pos/Exam [5]: 0/3 | Summary Reactivity [5]: 0 | # Pos/Exam (Stomach: Chief Cells): 3/3 | Summary Reactivity (Stomach: Chief Cells): 290 | # Pos/Exam (Stomach: Mucosal Epithelium): 3/3 | Summary Reactivity (Stomach: Mucosal Epithelium): 367 | # Pos/Exam [6]: 0/3 | Summary Reactivity [6]: 0 | # Pos/Exam (Stomach: Parietal Cells): 3/3 | Summary Reactivity (Stomach: Parietal Cells): 290 | # Pos/Exam (Stomach: Smooth Muscle): 0/3 | Summary Reactivity (Stomach: Smooth Muscle): 0 | # Pos/Exam (Stromal Tissue: Adipose): 0/63 | Summary Reactivity (Stromal Tissue: Adipose): 0 | # Pos/Exam [7]: 0/120 | Summary Reactivity [7]: 0 | # Pos/Exam (Stromal Tissue: Endothelium): 0/120 | Summary Reactivity (Stromal Tissue: Endothelium): 0 | # Pos/Exam [8]: 0/120 | Summary Reactivity [8]: 0 | # Pos/Exam (Stromal Tissue: Macrophages): 0/117 | Summary Reactivity (Stromal Tissue: Macrophages): 0 | # Pos/Exam [9]: 0/86 | Summary Reactivity [9]: 0 | # Pos/Exam (Testis: Interstitial Cells): 0/3 | Summary Reactivity (Testis: Interstitial Cells): 0 | # Pos/Exam (Testis: Sertoli Cells): 3/3 | Summary Reactivity (Testis: Sertoli Cells): 93 | # Pos/Exam (Thymus: Hassal's Epithelium): 3/3 | Summary Reactivity (Thymus: Hassal's Epithelium): 147 | # Pos/Exam (Thymus: Hassal's Keratin): 3/3 | Summary Reactivity (Thymus: Hassal's Keratin): 333 | # Pos/Exam (Thymus: Lymphoid Cortex): 0/3 | Summary Reactivity (Thymus: Lymphoid Cortex): 0 | # Pos/Exam (Thymus: Lymphoid Medulla): 3/3 | Summary Reactivity (Thymus: Lymphoid Medulla): 167 | # Pos/Exam (Thyroid: C-Cells): 0/3 | Summary Reactivity (Thyroid: C-Cells): 0 | # Pos/Exam (Thyroid: Colloid): 0/3 | Summary Reactivity (Thyroid: Colloid): 0 | # Pos/Exam (Thyroid: Follicular Epithelium): 3/3 | Summary Reactivity (Thyroid: Follicular Epithelium): 500 | # Pos/Exam (Tonsil: Epithelium): 1/3 | Summary Reactivity (Tonsil: Epithelium): 500 | # Pos/Exam [10]: 0/3 | Summary Reactivity [10]: 0 | # Pos/Exam [11]: 0/3 | Summary Reactivity [11]: 0 | # Pos/Exam (Tonsil: Mucus Gland): 1/1 | Summary Reactivity (Tonsil: Mucus Gland): 300 | # Pos/Exam (Tonsil: Striated Muscle): 0/3 | Summary Reactivity (Tonsil: Striated Muscle): 0 | # Pos/Exam (Umbilical Cord: Epithelium): 0/3 | Summary Reactivity (Umbilical Cord: Epithelium): 0 | # Pos/Exam [12]: 3/3 | Summary Reactivity [12]: 433 | # Pos/Exam (Urinary Bladder: Serosa): 0/1 | Summary Reactivity (Urinary Bladder: Serosa): 0 | # Pos/Exam (Urinary Bladder: Smooth Muscle): 0/3 | Summary Reactivity (Urinary Bladder: Smooth Muscle): 0 | # Pos/Exam (Uterus: Endometrial Epithelium): 3/3 | Summary Reactivity (Uterus: Endometrial Epithelium): 500 | # Pos/Exam (Uterus: Endometrial Glands): 3/3 | Summary Reactivity (Uterus: Endometrial Glands): 500 | # Pos/Exam (Uterus: Smooth Muscle): 0/3 | Summary Reactivity (Uterus: Smooth Muscle): 0 | # Pos/Exam [13]: 1/1 | Summary Reactivity [13]: 500 | # Pos/Exam (Vagina/Cervix: Smooth Muscle): 0/2 | Summary Reactivity (Vagina/Cervix: Smooth Muscle): 0 | # Pos/Exam [14]: 1/1 | Summary Reactivity [14]: 200
